Measurements reported in paper PMC10442857, “Cellular Uptake of a Fluorescent Ligand Reveals Ghrelin O-Acyltransferase Interacts with Extracellular Peptides and Exhibits Unexpected Localization for a Secretory Pathway Enzyme” (ACS Chemical Biology, 2023).
Peptide text beside a SMILES is read from it.

Key:
[1] = molecular target: human ghrelin O-acyltransferase (hGOAT) of the hGOAT inhibition assays (human) (UniProt Q96T53)
GHSR (GHS-R1a) = molecular target: T1, GHSR (GHS-R1a) (Homo sapiens, UniProt Q92847); test: biochemical; format: binding; settings: lower limit from test at 100 µM; read-out: IC50 against GHSR
T1 construct: expressed in transfected cells; host or cells: HEK 293 cells transfected with GHS-R1a (membrane suspension)
Experimental: Peptide binding affinity for the ghrelin receptor was determined using a competitive radioligand-displacement binding assay,[22] with details provided in the Supporting Information. […]
GHSR receptor binding assays. Peptide binding affinity for the ghrelin receptor was determined using a competitive radioligand-displacement binding assay.1 Assays were performed using GHS-R1a transfected HEK 293 cells as the receptor source and human His[125I]-ghrelin(1−28) (PerkinElmer Inc. NEX388010UC ) as the radioligand. Human ghrelin(1−28) was used as a reference to ensure the validity of the results. A suspension of membrane from HEK 293/GHS-R1a cells (100,000 cells per assay tube) were incubated with ghrelin(1−8) peptide analogues (at […]
ghrelin (15 pM per assay tube) in binding buffer (25 mM HEPES, 5 mM magnesium chloride, 1 mM calcium chloride, 2.5 mM EDTA, and 0.4% BSA, pH 7.4). The resulting suspension was incubated for 20 min under shaking (550 rpm) at 37 °C. Unbound [ 125I]-ghrelin was removed and the amount of [ 125I]-ghrelin bound to the membranes was measured by γ counter. IC 50 values were determined by nonlinear regression analysis to fit a four-parameter dose−response curve using Prism 6 (version 6.0c). All binding assays were performed in triplicate. […]

22Rv1 cells = test: GOAT ligand labeling and imaging in 22Rv1 prostate cancer cells; format: cell-based, human; settings: 5 μM ligand 15 with 40 μM ligand 12, 30 min RT, p < 0.05
Experimental: Prostate cancer (PCa) cells LNCaP (ATCC, CRL-1740) and 22Rv1 (ATCC, CRL-2505) were maintained in a 75 mL vented tissue culture flask (Celltreat) at 37 °C with 5% CO2 in complete 1× RPMI (Roswell Park Memorial Institute) media supplemented with 10% FBS and 1% (v/v) penicillin-streptomycin (Mediatech). Cell lines were passaged upon reaching 70% confluency (∼2–3 days). For microscopy studies, PCa cells were plated in 2 mL of complete 1× RPMI in a six-well plate (Corning) containing sterile 12 mm poly-L-lysine coated glass coverslips (Neuvitro, GG-12-PDL) in each well. The cells were allowed to adhere and reach 70% confluence on the coverslips prior to labeling.
Upon reaching confluency, coverslips with attached PCa cells were treated with ligands at the indicated concentration for 30 min at RT (unless otherwise stated). Cells were washed 3× with 1× phosphate-buffered saline (PBS) (Cellgro) and then fixed for immunofluorescence staining as described above. For ligand competition experiments, cells were incubated with 5 μM ligand 15 alone, 5 μM ligand 15 with 40 μM ligand 12, or PBS alone for 30 min at RT. […]
The fluorescence range of intensity was adjusted identically for each image series. […] Total cell fluorescence was determined by calculating the integrated density of mean gray value in a cell area compared to background as shown in eqs 4 and 5. […]

[2] = molecular target: T2, human ghrelin O-acyltransferase (hGOAT) of the hGOAT inhibition assays (human, UniProt Q96T53 1-435); test: cell-based or functional assay
T2 sequence (looked up): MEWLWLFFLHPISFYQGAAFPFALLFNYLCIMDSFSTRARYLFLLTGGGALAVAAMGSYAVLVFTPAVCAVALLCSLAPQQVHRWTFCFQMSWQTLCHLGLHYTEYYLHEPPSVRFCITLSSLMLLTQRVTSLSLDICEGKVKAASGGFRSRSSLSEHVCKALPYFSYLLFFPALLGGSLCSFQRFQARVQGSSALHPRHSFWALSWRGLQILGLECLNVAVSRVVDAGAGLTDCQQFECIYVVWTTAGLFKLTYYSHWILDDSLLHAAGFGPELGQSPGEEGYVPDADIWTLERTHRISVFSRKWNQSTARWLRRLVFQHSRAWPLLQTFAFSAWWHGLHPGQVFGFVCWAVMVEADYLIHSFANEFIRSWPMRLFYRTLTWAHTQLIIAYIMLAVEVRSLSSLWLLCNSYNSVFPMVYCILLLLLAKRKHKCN

ligand 15, H-GS-Dap-Nal-1-LSPTK(SulfoCy5)-NH2 (peptide)
inhibition of hGOAT activity by ligand 15 (IC50) [1]: 17 nM

CC(C)C[C@H](NC(=O)[C@H](Cc1cccc2ccccc12)NC(=O)[C@H](CN)NC(=O)[C@H](CO)NC(=O)CN)C(=O)N[C@@H](CO)C(=O)N1CCC[C@H]1C(=O)N[C@H](C(N)=O)[C@@H](C)O [ligand 12, H-GS-Dap-Nal-1-LSPT-NH2] (HELM PEPTIDE1{G.S.[NC[C@H](N[*:1])C(=O)[*:2]].[O=C([C@H](Cc1cccc2ccccc12)N[*:1])[*:2]].L.S.P.T.[am]}$$$$V2.0)
IC50 (GHSR (GHS-R1a)): ≥ 100000 nM | effect of unlabeled competitor on ligand 15 internalization (total cell fluorescence) (22Rv1 cells): significant reduction of ligand 15 internalization

B1: ligand 5, H-Inp-S-Dap-FLSPY-NH2 (peptide)
chain: XSXFLSPY
HELM: PEPTIDE1{[O=C(C1CCNCC1)[*:2]].S.[NC[C@H](N[*:1])C(=O)[*:2]].F.L.S.P.Y.[am]}$$$$V2.0
SMILES: CC(C)C[C@H](NC(=O)[C@H](Cc1ccccc1)NC(=O)[C@H](CN)NC(=O)[C@H](CO)NC(=O)C1CCNCC1)C(=O)N[C@@H](CO)C(=O)N1CCC[C@H]1C(=O)N[C@@H](Cc1ccc(O)cc1)C(N)=O
inhibition of hGOAT activity (IC50 against hGOAT) [2]: > 100000 nM

B2: ligand 12, H-GS-Dap-Nal-1-LSPT-NH2 (peptide)
chain: GSXXLSPT
HELM: PEPTIDE1{G.S.[NC[C@H](N[*:1])C(=O)[*:2]].[O=C([C@H](Cc1cccc2ccccc12)N[*:1])[*:2]].L.S.P.T.[am]}$$$$V2.0
SMILES: CC(C)C[C@H](NC(=O)[C@H](Cc1cccc2ccccc12)NC(=O)[C@H](CN)NC(=O)[C@H](CO)NC(=O)CN)C(=O)N[C@@H](CO)C(=O)N1CCC[C@H]1C(=O)N[C@H](C(N)=O)[C@@H](C)O
inhibition of hGOAT activity (IC50 against hGOAT) [2]: 6 nM
